Assay [1] concerns the target T1, cyno FGFR2b on cells (cyno, UniProt A0A2K5TL97 22-821). Nature of the assay: flow cytometry, cyno FGFR2b OE cells.
For assay [2], the target named is T1, cyno FGFR2b on cells. The assay can be described thus: flow cytometry, Expi293 cells overexpressing cyno FGFR2b.
Assay [3] addresses T2, cyno FGFR2b protein (recombinant) (cyno, UniProt A0A2K5TL97 22-380). Nature of the assay: SPR, antibody captured by anti-human Fc, cyno FGFR2b.
The target of assay [4] is T2, cyno FGFR2b protein (recombinant). The assay can be described thus: ELISA, plate-coated cyno FGFR2b.

Results on six molecules are retold here after patent US20250222125A1 (BEIGENE, published 2025).

T1 sequence (A0A2K5TL97 entry or part of it): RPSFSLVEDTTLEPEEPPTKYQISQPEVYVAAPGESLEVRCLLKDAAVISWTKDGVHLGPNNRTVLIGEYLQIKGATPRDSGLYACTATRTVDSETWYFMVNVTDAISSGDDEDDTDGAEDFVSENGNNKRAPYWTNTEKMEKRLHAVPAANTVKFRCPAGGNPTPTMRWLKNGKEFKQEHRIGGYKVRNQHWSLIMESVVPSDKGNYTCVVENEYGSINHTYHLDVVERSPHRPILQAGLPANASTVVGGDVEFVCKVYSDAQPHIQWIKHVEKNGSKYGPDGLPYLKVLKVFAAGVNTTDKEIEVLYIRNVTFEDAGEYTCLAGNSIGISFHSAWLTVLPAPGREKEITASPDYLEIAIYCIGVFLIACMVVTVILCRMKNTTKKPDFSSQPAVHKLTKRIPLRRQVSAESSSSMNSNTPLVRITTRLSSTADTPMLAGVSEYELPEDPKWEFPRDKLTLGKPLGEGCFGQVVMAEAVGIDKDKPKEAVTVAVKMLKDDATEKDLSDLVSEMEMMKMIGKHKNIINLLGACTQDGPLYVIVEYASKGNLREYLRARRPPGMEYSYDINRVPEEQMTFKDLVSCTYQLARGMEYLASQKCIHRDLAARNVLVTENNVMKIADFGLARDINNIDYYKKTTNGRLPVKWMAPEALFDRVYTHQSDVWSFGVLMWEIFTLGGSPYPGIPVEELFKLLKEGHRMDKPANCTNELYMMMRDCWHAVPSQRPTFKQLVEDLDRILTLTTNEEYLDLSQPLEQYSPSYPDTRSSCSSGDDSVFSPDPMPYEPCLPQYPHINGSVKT

B1: BGA1421 (antibody, human IgG1, kappa, V domains shown)
VH: QVQLVQSGAEVKKPGSSVKVSCKASGYIFTTYNVHWVRQAPGQGLEWIGSIYPDNGDTSYNQNFKGRATITADKSTSTAYMELSSLRSEDTAVYYCARGDFAYWGQGTLVTVSS
VL: DIQMTQSPSSLSASVGDRVTITCKASQGVSNDVAWYQQKPGKAPKLLIYSASYRYTGVPSRFSGSGSGTDFTFTISSLQPEDIATYYCQQHSTTPYTFGQGTKLEIKR
notes: also called bemarituzumab; comparator antibody alone (un-conjugated)
The molecule B1 had a concentration giving a half-maximal response (EC50) in assay [1] of 0.49 nM.

B2: BGAm1823 (antibody, V domains shown)
VH: EVQLQQSGAELVKPGASVKISCKASGYAFSIYWMNWVKQRPGKGLEWIGQIYPENGDTNYNGKFKGKATLTADKSSSTAYMHLSSLTSEDSAVYFCARGGFDYWGQGTTLTVSS
VL: NIVMTQSPASLSASVGETVTITCRASENIYSNLAWYQQKQGKSPQLLVYTATNLADGVPSRFSGSGSGTQFSLKINSLQPEDFGSYYCQHFYGILYTFGSGTRLEIK
notes: assays detect or capture it with anti-human IgG; also called murine parental antibody of BGAh9239
Take B2: in assay [2], the EC50 came to 6.27 nM and the “Emax (MFI)” value stood at 7.36e+06 MFI. Moreover, in assay [3], the Kd was found to be 24.6 nM, the koff was found to be 0.0018 s⁻¹ and the kon is 73500 M⁻¹ s⁻¹. In assay [4], the EC50 is 0.0551 nM and the “Emax (A450)” value is 3 A450.

B3: BGA2354 (antibody, human IgG1, lambda, V domains shown)
VH: EVQLLESGGGLVQPGGSLRLSCAASGFTFRTSGMHWVRQAPGKGLEWVAVISYDGSNKYYADSVKGRFTISRDNSKNTLYLQMNSLRAEDTAVYYCARESPGYDFEYWGQGTLVTVSS
VL: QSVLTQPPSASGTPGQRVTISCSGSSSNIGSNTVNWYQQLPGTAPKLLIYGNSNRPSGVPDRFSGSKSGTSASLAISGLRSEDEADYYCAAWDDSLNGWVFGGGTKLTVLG
notes: also called M047 (Bayer; BAY1895344)
In assay [1], B3 had a half-maximal effective concentration (EC50) of 0.34 nM.

B4: BGAm1371 (antibody, V domains shown)
VH: QVQLKQSGAELVKPGASVKLSCTASGFNIKDTYIHWVKQRPEQGLEWIGRIDPANGNTMFASEFQGKATITAYTSSNTAYMQLSSLTSGDTAVYYCARSKIHYDYDEGFAYWGQGTLVTVSS
VL: NIVLTQSPPSLAVSLGQRATVSCRASESVDDYGYSFLHWYQQKPGQPPKLLIYRASNLESGIPARFSGSGSRTDFTLTINPVETDDVATYYCQQSNQNPRTFGGGTKLEIK
notes: assays detect or capture it with anti-human IgG; also called parental mouse clone; murine parental antibody of BGAh9179
As to B4, in assay [2], the EC50 is 4.73 nM and the “Emax (MFI)” value stood at 6.19e+06 MFI. In assay [1], the EC50 was determined as 5.02 nM. Further, in assay [3], the Kd came out at 15.7 nM, the koff worked out at 0.00125 s⁻¹ and the kon turned out to be 79700 M⁻¹ s⁻¹. Also, in assay [4], the EC50 came to 0.0245 nM and the “Emax (A450)” value is 3.02 A450.

B5: BGAh9239 (antibody, human IgG1, kappa, V domains shown)
VH: QVQLVQSGAEVKKPGSSVKVSCKASGYTFSIYWLNWVRQAPGQGLEWMGQIYPENADTNYSGKFKGRVTITADKSTSTAYMELSSLRSEDTAVYFCARGGFDYWGQGTLVTVSS
VL: DIQMTQSPSSLSASVGDRVTITCRASENIYSNLAWYQQKPGKAPKLLIYTATNLAEGVPSRFSGSGSGTDFTLTISSLQPEDFATYYCQHFYGILYTFGQGTRLEIKR
notes: also called humanized antibody developed from BGAm1823
B5: in assay [2], the response was half-maximal at 7.93 nM (EC50) and the “Emax (MFI)” value is 6.88e+06 MFI. Moreover, the EC50 in assay [1] came to 1.55 nM. Moreover, in assay [3], the Kd was 34 nM, the koff was found to be 0.00272 s⁻¹ and the kon stood at 79900 M⁻¹ s⁻¹. In addition, in assay [4], the concentration for a half-maximal effect (EC50) was 0.0442 nM and the “Emax (A450)” value amounted to 2.93 A450.

B6: BGAh9179 (antibody, human IgG1, kappa, V domains shown)
VH: QVQLVQSGAEVKKPGASVKVSCKASGYTITDTYIHWVRQAPGQGLEWMGRIDPAEGNTMFASEFQGRVTMTADTSTSTVYMELSSLRSEDTAVYYCARSKIHYDYDEGFAYWGQGTLVTVSS
VL: DIVLTQSPDSLAVSLGERATINCRASESVDDYGYSFLHWYQQKPGQPPKLLIYRASNLESGVPDRFSGSGSGTDFTLTISSLQAEDVAVYYCQQSNQNPRTFGGGTKVEIKR
notes: also called BGA9179; humanized antibody developed from BGAm1371
Consider B6, for which, in assay [2], the EC50 stood at 8.45 nM and the “Emax (MFI)” value came to 6.25e+06 MFI. In addition, in assay [3], the Kd turned out to be 20.6 nM, the koff is 0.00172 s⁻¹ and the kon stood at 83700 M⁻¹ s⁻¹. Besides, in assay [4], the EC50 stood at 0.0469 nM and the “Emax (A450)” value came to 2.95 A450.
